The target in this test is DENV-2 Envelope protein (DENV E dimeric protein) (Dengue virus type 2; strain of the BLI …, UniProt P14340). Nature of the test: BLI; Octet RED 96, 24 °C, 1,000 rpm; CR3022 (5 µg/ml) loaded on AHC (anti-hIgG Fc capture) sensors; DENV E dimeric protein diluted three-fold from 6,000 nM; 50 mM Tris, 150 mM NaCl, 0.5% glycerol, pH 8.0; global 1:1 fit. To be noted: both partners purified. On the technique in general: Biolayer interferometry detects binding as a change in optical thickness at a sensor tip.

Our source for the Kd values is publication PMC12852381 (2025).

B1: CR3022, an antibody against the SARS-CoV-2 spike protein (antibody, V domains shown)
VH: EVQLVQSGTEVKKPGESLKISCKGSGYGFITYWIGWVRQMPGKGLEWMGIIYPGDSETRYSPSFQGQVTISADKSINTAYLQWSSLKASDTAIYYCAGGSGISTPMDVWGQGTTVTVSS
VL: not shown
For the molecule B1, binding was put at a Kd of 2830 nM.
